± gives the uncertainty stated by the source.
experiment: amyloid nucleation score (Sup35N fusion, yeast selection) (log enrichment); library NNK3; higher = more nucleation; inactive = no reads after selection
Summary of the method: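 The nucleation score is the DiMSum log enrichment of output over input reads, centred on the mode score of non-aggregating sequences. Only sequences with 100 or more input reads were scored, using Illumina sequencing of input and output plasmid inserts. Psi-negative yeast expressing Sup35N fused to peptides of 20 random codons were induced 24 hours with 100 μM copper sulfate and grown 7 days at 30°C on medium lacking adenine and uracil.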

Substance	amyloid nucleation score
LNRDGVISMFFSFCGGTRPR	-0.452 ± 0.93
LNTGLLLLCG	inactive
LNTKEYLLYKRICTSNANLL	-0.621 ± 1.1
LNVRSI	inactive
LNVYNWKN	inactive
LNYNF	inactive
LPALEQNVLHLVMVIY	inactive
LPGCVSEFG	inactive
LPIKMGMLLSICDLLG	inactive
LPRTYRKALVPNVVVFSYLT	inactive
LPVVFLCRYDSI	inactive
LPYQIIWRCCAMVNFDFLVL	inactive
LPYYCSIDAVMCREPTGLGS	inactive
LQAQMYCLTTLWSWFGRVSR	inactive
LQAYAMGNYRGDKK	inactive
LQFVMLRTWVLRSRGTQAVT	0.592 ± 0.21
LQKIKCSQADYWREMTVRDR	1.01 ± 0.16
LQLWVSFSSVKLCYCISHSF	inactive
LQVLFSYYFENRSGDLVRDD	0.641 ± 0.14
LQYRSL	inactive
LRAKTRHSVLNCDRIVEPGG	1.49 ± 0.13
LRCWYFLNMMMPYPPPSIKW	inactive
LRGGKVMITRFVSCSI	inactive

Substance	amyloid nucleation score
LRGSRYFWDWAPSYYFVHLR	inactive
LRGSYNVS	inactive
LRKRELCGIPSINAAPGLLG	inactive
LRLNLMSILKVEYRCSMITW	inactive
LRLSGVMHRTFYCVVSGHGR	inactive
LRMFNGSEAIYFMLVQSLFR	inactive
LRNIMGECDSAWKDVMVGVA	inactive
LRNLVTWRVQSKWFSIQSSW	inactive
LRNVYTRVEITQLLTRTSGS	inactive
LRRRVKSFSELYLAVTRVML	0.286 ± 0.43
LRRSVSIGDPGASLIKTSFA	inactive
LRRYVARNRRSYFTESLPRA	-0.123 ± 1.4
LRSVLSVGGEMAYINCNQLL	inactive
LRSWNMLPRWVGRYWIFGGK	inactive
LRTAEDFETS	-0.416 ± 1.5
LRTFKITFRGTVKTRRSLTN	0.466 ± 0.63
LRTPGTGSFAESEDLSMTEG	inactive
LRVCISGYSN	inactive
LRVMSI	-0.964 ± 2.5
LRWYPDSCYVSV	inactive
LRYGEFSCSNLYFTWLSFIL	0.749 ± 0.17
LRYVGCTKMSGAMGARS	inactive
LRYWPVCLVQIAFDFTVTGV	1.97 ± 0.062

Substance	amyloid nucleation score
LRYWWLDLTYYL	inactive
LSAHMMSCIKVYEFGFGCVD	inactive
LSALHSVYLINAISFGFNQT	1.09 ± 0.13
LSDDMPKV	inactive
LSDWKFDMCYCFFVLCQELW	inactive
LSDYEDIAISFIKYRCSSLN	1.42 ± 0.11
LSFHP	inactive
LSFRTQALFYFVMLYGIWRA	inactive
LSFSRDRLLHSSWGTKLMIM	inactive
LSFTHSSDTECCGER	inactive
LSFYCFNYSNFDMVWNGKYN	2.29 ± 0.062
LSGFSMIFREDNSVVFV	inactive
LSGVLLILSMYLDYWTNIF	inactive
LSINLASSSGVSVLLKGSNL	0.87 ± 0.24
LSKRRTIILGLVELRYSEVE	inactive
LSLCRT	0.001 ± 0.32
LSLFPMGCIYKHRIGLVTAK	inactive
LSLISVSLG	inactive
LSLREE	inactive
LSMHVVFVYIGFPHMDFDGS	inactive
LSMSAVL	inactive
LSMVRLNFTRIC	inactive
LSNHCARVF	inactive

Substance	amyloid nucleation score
LSSFNDDMNGVTFYPSISLD	inactive
LSSIAFCFN	1.15 ± 0.15
LSSLVSFVITQLRLLMKTER	inactive
LSSTV	inactive
LSSYTVSFPKRMHRSEYFGY	-0.73 ± 0.9
LSTFMWNQAVWTPRIFWRCA	inactive
LSVELCTCGVRPQATYYPQG	1.31 ± 0.13
LSVGVSRCLNPLLTIGSGRE	1.28 ± 0.096
LSVLFCLDGK	inactive
LSYSRTGASC	inactive
LTFTAVNWAVPVGRGT	inactive
LTKYRGPQDVRNAFSCSNIM	inactive
LTMSRMMYLDKMLYFLYVQW	inactive
LTRFQ	inactive
LTRLLGDLIPPVNMGARECD	inactive
LTTPVTR	-0.169 ± 0.63
LTTQSGLMAGRKKFWDAELG	0.902 ± 0.21
LTVLDQSCSIYYCTSLHKS	1.92 ± 0.087
LTVNDDFRYKAFWVCRSMFV	inactive
LTVRKSY	inactive
LVDLLHTMYSCYLGYKSFRG	inactive
LVEHVEVCVIYCSCDCFSSV	1.86 ± 0.059
LVEMNFLAVINRFICSSSLP	inactive

Substance	amyloid nucleation score
LVFASSVSSSDLTLCVGSCM	-0.594 ± 2.4
LVFPVKKSLVCEGV	inactive
LVFVCARQSTIEVRGKQSRM	2.06 ± 0.065
LVGSSSFTAWPTIVSNI	inactive
LVGVSRRSREGDSTLSPSLG	inactive
LVGYRAQLHGVNYSMFVGIS	inactive
LVKLKL	inactive
LVLGWWAIFGVDYGHSSYLL	inactive
LVLMCIIARIAVVYKR	inactive
LVLMVSQGSYFTTI	-0.474 ± 0.57
LVMLMYVVPGFVGGDFTGDF	inactive
LVNDKMLCNYHAMMRLFFFM	inactive
LVQSTRGSRSNTWACNERFV	inactive
LVSHLIGFSCRFNPRSERFC	1.29 ± 0.1
LVTSNNMSAGRYNMCLRVLS	inactive
LVTSTSMG	2.77 ± 0.068
LVVDYLEFCTFLVDVENIWT	inactive
LVVGVFKGSRSYVFK	inactive
LVVIG	inactive
LVVLFGPNFLIPVGLRIAVN	0.245 ± 0.37
LVWSSRPTSW	inactive
LVYREGYIWVMFLIYSFWTV	inactive
LWIWR	-0.43 ± 0.7

Substance	amyloid nucleation score
LWKVRCSSGHGEIYAYCDMA	inactive
LWLFSGCFGYYVILATLYFL	inactive
LWPRRADVKQASRQPDYQCV	-0.727 ± 1
LYAINLWLAVFYRLQQFMDV	inactive
LYDSIVHESKRLLATDRIRF	inactive
LYFCKNKYTCWSACVNSGFN	inactive
LYFMCTNRQVL	inactive
LYFNWWTRGTAMLYGI	inactive
LYFSFIFNLSIQGDAEFVSN	2.49 ± 0.051
LYGAWSNIPLYMFSFHFMYR	inactive
LYGDL	inactive
LYIIFHNKYFLVEMGNYNCC	1.88 ± 0.07
LYITMRNVF	inactive
LYKSNPLFPCQFCLISGKFC	0.868 ± 0.12
LYLGTSYHRNC	inactive
LYMKSTKLVLTKRDISTFRC	1.11 ± 0.14
LYMYYWLSYVV	inactive
LYNFRECTQTSFISFVCQLV	inactive
LYRAIHHNKFLESACLRYAL	inactive
LYRVVYFDALKNCGYVVSFW	inactive
LYSCRFMNLKTYLVL	inactive
LYSGFI	inactive
LYSVLGVVSTDSRRDAEWCQ	inactive

Substance	amyloid nucleation score
LYVTRVSVSVVTYRFTCKRV	inactive
MAEPTL	inactive
MAHDEYWTGCVTGYKELEVM	inactive
MAVSRK	inactive
MCKMLFSFLCLHKYCWVNVL	inactive
MCLSMVKISKNKLSFTGFLI	inactive
MCPHKGIRSISLMIG	inactive
MCRVV	-0.294 ± 0.93
MCSPYFMSTSNTIFQSTRYG	1.12 ± 0.12
MDAYRNHFMFTIIKFYSCES	inactive
MDPESVWED	inactive
MDRYFQYPMQDMAQGTVRRD	-0.56 ± 1.7
MELYPLLVGNFSIQKKVECN	inactive
METCPLCIICLYGKWIRFSR	inactive
MEVFFTSTFIGEFNRVCDTY	inactive
MFDIVNKTSELL	inactive
MFECNWAIFRREFLRLVCTV	inactive
MFEIIGHRRMLFIFYNMCYR	inactive
MFFELSLIISCFTEV	1.42 ± 0.11
MFLCYNVLVVTESLGLAHLD	inactive
MFNFEFLC	2.33 ± 0.085
MFVVMWVDYLAEHMFYGRWW	inactive
MFWCDNSGIMGADKGVALSW	inactive
